Biological target: Fluorescein-maleamide labeled purified FN (UniProt P02751)
Test: SDS-PAGE, non-reducing against reducing

stoichiometry N: 2
Substance: Fluorescein-maleamide labeled purified FN (from UniProt P02751 32-2477) (natural protein)

Reference: publication PMC2683204
